This is an account of results in paper PMC7763485, “Quantifying the Monomer–Dimer Equilibrium of Tubulin with Mass Photometry” (Journal of Molecular Biology, 2020).

This assay concerns the target β-tubulin (porcine, UniProt P02554 1-445). Kind of assay: mass photometry; label-free, in free solution; tubulin diluted in BRB80 buffer to 1 to 60 nM total monomer, no added GTP; 20 min equilibration after dilution (also measured immediately after dilution); Kd computed from counts of monomers and dimers in each single distribution; heterodimer to monomers. To be noted: both partners purified.

Chain of β-tubulin (P02554 whole entry): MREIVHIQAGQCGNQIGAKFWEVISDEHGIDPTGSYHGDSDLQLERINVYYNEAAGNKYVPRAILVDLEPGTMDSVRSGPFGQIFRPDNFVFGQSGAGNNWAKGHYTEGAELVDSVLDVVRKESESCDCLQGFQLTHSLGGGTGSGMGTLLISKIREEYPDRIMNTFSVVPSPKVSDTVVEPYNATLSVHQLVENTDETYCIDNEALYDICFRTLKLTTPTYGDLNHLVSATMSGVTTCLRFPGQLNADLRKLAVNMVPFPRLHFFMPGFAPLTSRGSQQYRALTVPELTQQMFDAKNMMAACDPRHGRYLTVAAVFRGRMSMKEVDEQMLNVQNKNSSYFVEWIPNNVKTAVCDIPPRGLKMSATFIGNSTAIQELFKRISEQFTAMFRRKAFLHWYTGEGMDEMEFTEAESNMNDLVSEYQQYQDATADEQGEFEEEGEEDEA

B1: α-tubulin (natural protein)
chain: MRECISIHVGQAGVQIGNACWELYCLEHGIQPDGQMPSDKTIGGGDDSFNTFFSETGAGKHVPRAVFVDLEPTVIDEVRTGTYRQLFHPEQLITGKEDAANNYARGHYTIGKEIIDLVLDRIRKLADQCTGLQGFSVFHSFGGGTGSGFTSLLMERLSVDYGKKSKLEFSIYPAPQVSTAVVEPYNSILTTHTTLEHSDCAFMVDNEAIYDICRRNLDIERPTYTNLNRLIGQIVSSITASLRFDGALNVDLTEFQTNLVPYPRAHFPLATYAPVISAEKAYHEQLSVAEITNACFEPANQMVKCDPRHGKYMACCLLYRGDVVPKDVNAAIATIKTKRTIQFVDWCPTGFKVGINYEPPTVVPGGDLAKVQRAVCMLSNTTAIAEAWARLDHKFDLMYAKRAFVHWYVGEGMEEGEFSEAREDMAALEKDYEEVGVDSVEGEGEEEGEEY
modifications: Brain-purified isotype mixture, isotype not named; TUBA1A taken as representative by convention. Native brain PTMs are likely but not specified. GTP at the non-exchangeable site as purified; the …
Consider B1, for which the “dimer:monomer ratio at 60 nM total tubulin” value is about 2.
